# Measurements reported in article PMC11721464.
# Molecular target: Zika virus prM/E heterodimer of the immature virion (Zika virus strain MR-766)
# Test: cryo-EM structure; immature ZIKV MR-766 virions purified from NH4Cl-treated Vero E6 cells, neutral pH (TNE buffer, pH 7.4); icosahedral symmetry enforced, 8.3 Å map; homology model of prM/E (template SPOV PDB 6ZQI) fitted and refined in real space
substance,measurement,value
Zika virus prM/E heterodimer of the immature virion (complex),stoichiometry N,3
